Assay [1] deals with T1, Recombinant human Syntaxin6 (human, UniProt O43752 1-255).
T1 sequence: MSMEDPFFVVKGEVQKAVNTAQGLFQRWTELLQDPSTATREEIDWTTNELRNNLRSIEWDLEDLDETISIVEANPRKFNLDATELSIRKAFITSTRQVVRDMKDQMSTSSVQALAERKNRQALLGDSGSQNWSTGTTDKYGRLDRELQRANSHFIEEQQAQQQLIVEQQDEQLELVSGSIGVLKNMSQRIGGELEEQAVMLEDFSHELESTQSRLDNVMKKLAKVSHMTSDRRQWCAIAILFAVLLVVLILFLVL
As to the kind of experiment: pull-down.

For a further assay, the target named is T2, Recombinant human Vti1a (human, UniProt Q96AJ9 1-217).
T2 sequence (looked up): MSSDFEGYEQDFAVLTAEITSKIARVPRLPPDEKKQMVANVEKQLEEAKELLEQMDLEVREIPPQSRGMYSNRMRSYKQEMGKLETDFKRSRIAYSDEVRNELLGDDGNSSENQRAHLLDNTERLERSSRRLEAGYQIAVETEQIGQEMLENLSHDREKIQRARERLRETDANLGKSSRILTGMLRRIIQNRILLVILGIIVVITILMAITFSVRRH
As to the kind of experiment: pull-down.

B1: GST-VAMP4 (natural protein, human, UniProt O75379 1-141, looked up)
chain: MPPKFKRHLNDDDVTGSVKSERRNLLEDDSDEEEDFFLRGPSGPRFGPRNDKIKHVQNQVDEVIDVMQENITKVIERGERLDELQDKSESLSDNATAFSNRSKQLRRQMWWRGCKIKAIMALVAAILLLVIIILIVMKYRT
Take B1: the binding result (in assay [1]; with Recombinant human Vti1a) was “binds” each time.

These data come from doi:10.1101/2021.02.09.430442 (bioRxiv, 2021).
